Measured values taken from patent publication US20140364363A1.

Biological target: insulin receptor, endogenous in 3T3-L1 preadipocytes (UniProt P15208)
Assay: cell-based or functional assay

Chain of UniProt P15208 (P15208 28-1372 limits assumed): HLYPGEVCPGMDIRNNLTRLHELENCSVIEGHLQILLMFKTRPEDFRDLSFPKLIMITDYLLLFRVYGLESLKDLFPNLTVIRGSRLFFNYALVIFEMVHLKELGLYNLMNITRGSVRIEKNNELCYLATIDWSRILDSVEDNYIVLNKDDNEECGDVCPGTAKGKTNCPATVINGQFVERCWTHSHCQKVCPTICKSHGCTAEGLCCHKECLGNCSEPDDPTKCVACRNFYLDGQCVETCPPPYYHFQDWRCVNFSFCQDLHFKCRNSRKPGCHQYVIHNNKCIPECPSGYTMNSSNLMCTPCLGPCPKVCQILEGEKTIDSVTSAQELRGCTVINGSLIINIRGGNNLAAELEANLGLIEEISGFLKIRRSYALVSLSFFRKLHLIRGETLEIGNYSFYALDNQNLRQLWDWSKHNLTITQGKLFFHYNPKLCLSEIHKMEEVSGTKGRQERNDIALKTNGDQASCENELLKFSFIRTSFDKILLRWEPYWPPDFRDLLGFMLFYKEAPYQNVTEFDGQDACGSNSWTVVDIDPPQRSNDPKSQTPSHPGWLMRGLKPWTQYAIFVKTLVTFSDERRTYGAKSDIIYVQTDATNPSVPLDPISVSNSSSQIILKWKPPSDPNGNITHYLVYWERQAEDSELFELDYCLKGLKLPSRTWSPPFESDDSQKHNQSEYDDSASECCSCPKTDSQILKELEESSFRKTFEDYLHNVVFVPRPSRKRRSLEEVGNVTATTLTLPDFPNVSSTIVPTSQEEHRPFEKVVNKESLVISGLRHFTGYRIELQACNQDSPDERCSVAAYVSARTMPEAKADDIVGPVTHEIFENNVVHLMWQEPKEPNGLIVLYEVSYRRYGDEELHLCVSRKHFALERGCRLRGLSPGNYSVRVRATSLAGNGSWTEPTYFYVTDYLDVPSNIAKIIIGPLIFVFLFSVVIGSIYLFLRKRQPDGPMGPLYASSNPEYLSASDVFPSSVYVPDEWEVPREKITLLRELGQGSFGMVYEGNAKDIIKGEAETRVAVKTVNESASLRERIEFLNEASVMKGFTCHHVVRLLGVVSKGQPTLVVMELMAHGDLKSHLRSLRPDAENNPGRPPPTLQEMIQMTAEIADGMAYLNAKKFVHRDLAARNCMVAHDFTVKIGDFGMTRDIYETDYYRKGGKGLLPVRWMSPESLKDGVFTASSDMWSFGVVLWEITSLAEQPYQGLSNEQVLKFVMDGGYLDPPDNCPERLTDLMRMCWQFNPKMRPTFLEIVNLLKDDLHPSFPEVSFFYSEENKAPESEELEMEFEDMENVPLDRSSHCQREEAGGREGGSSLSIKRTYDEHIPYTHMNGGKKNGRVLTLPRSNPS

Substance | insulin-stimulated Akt-Ser473 peak phosphorylation, enhancement by overexpression [%] | insulin-stimulated ERK peak phosphorylation, enhancement by overexpression [%]
Gpc4Δ529SAG531::HHHHHH (ΔGpc4), soluble mutant lacking the GPI anchor attachment site, with N-terminal 6xHis tag (from UniProt P51655 19-528; P51655 532-557) | 94 | 67
native Gpc4 with HA-tag inserted after the signal peptide, stably overexpressed in 3T3-L1 cells (from UniProt P51655 19-529) | 140 | 100
